According to patent EP4678648A1:

Molecular target: FcRn (Neonatal Fc Receptor)
Assay: SPR (BIAcore T200), FcRn amine-coupled on CM5 chip, antibody 1.96-31.25 nM flowed, pH 6.0 or 7.4 not given, 1:1 fit; Table 4 taken as the FcRn table

Kd: 0.572 nM
Substance: Trastuzumab (antibody)
